The assay concerns the target biotinylated EpoR (Abbott CHO cell derived ref.#RB69084:4) (UniProt P19235). Briefly: immunofluorescence microscopy on EpoR-coated sheep red blood cells, MAB307 at 20 ug/ml.

Sequence of biotinylated EpoR (Abbott CHO cell derived ref.#RB69084:4) (P19235 25-250 limits assumed): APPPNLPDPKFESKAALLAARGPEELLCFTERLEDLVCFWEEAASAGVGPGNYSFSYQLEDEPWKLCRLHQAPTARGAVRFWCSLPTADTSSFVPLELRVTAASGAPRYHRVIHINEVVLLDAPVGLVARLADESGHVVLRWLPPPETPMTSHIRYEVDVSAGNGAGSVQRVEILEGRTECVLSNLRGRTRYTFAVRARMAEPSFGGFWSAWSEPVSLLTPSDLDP

For the substance “murine anti-EpoR antibody (R&D Systems Cat. #MAB307)”, the immunofluorescence score (arbitrary scale of 0-4) was 4 of 4.

The values above are taken from patent US20040175379A1.
